Experiments:
LAQ-1 = target: T1, LAQ-1 (Lelliottia amnigena, UniProt A0A8F5JT47); experiment: inhibition of nitrocefin hydrolysis, UV-VIS spectrophotometry; type: biochemical
T1 construct: gene blaLAQ

[1] = test system: CO/N=C(\C(=O)N[C@@H]1C(=O)N2C(C(=O)[O-])=C(C[N+]3(C)CCCC3)CS[C@H]12)c1csc(N)n1; experiment: hydrolysis initial rates, UV-VIS spectrophotometry, Michaelis-Menten fit; type: biochemical, Lelliottia amnigena; settings: 10 mM phosphate buffer pH 7.0, 37°C
Source text: (§1) hydrolysis initial rates, UV-VIS spectrophotometry, Michaelis-Menten fit on LAQ-1

[2] = test system: CC1(C)S[C@@H]2[C@H](NC(=O)[C@H](N)c3ccccc3)C(=O)N2[C@H]1C(=O)O; experiment: as above; type: biochemical, Lelliottia amnigena; settings: 10 mM phosphate buffer pH 7.0, 37°C
Source text: as §1

[3] = test system: Cc1nnc(SCC2=C(C(=O)O)N3C(=O)[C@@H](NC(=O)Cn4cnnn4)[C@H]3SC2)s1; experiment: as above; type: biochemical, Lelliottia amnigena; settings: 10 mM phosphate buffer pH 7.0, 37°C
Source text: as §1

[4] = test system: CO[C@@]1(NC(=O)Cc2cccs2)C(=O)N2C(C(=O)O)=C(COC(N)=O)CS[C@@H]21; experiment: as above; type: biochemical, Lelliottia amnigena; settings: 10 mM phosphate buffer pH 7.0, 37°C
Source text: as §1

[5] = test system: CCN1CCN(C(=O)N[C@@H](C(=O)N[C@@H]2C(=O)N3[C@@H]2SC(C)(C)[C@@H]3C(=O)O)c2ccccc2)C(=O)C1=O; experiment: as above; type: biochemical, Lelliottia amnigena; settings: 10 mM phosphate buffer pH 7.0, 37°C
Source text: as §1

[6] = test system: CC(C)(O/N=C(\C(=O)N[C@@H]1C(=O)N2C(C(=O)[O-])=C(C[n+]3ccccc3)CS[C@H]12)c1csc(N)n1)C(=O)O; experiment: as above; type: biochemical, Lelliottia amnigena; settings: 10 mM phosphate buffer pH 7.0, 37°C
Source text: as §1

T1 sequence (A0A8F5JT47 entry or part of it): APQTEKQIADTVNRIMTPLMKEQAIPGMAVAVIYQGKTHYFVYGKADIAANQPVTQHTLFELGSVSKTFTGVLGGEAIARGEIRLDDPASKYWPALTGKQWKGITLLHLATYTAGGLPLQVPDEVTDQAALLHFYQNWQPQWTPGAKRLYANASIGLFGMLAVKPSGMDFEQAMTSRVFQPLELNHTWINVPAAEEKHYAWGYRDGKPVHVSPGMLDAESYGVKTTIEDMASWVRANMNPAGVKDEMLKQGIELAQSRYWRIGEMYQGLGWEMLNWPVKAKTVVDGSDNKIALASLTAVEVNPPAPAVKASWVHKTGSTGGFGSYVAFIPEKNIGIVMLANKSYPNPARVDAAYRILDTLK

Molecule	IC50 (LAQ-1)	Km [1]	kcat [1]	kcat/Km [1]	Km [2]	kcat [2]	kcat/Km [2]	Km [3]	kcat [3]	kcat/Km [3]	Km [4]	kcat [4]	kcat/Km [4]	Km [5]	kcat [5]	kcat/Km [5]	Km [6]	kcat [6]	kcat/Km [6]
Nc1nc2c(ncn2[C@@H]2O[C@H](COP(=O)(O)O)[C@@H](O)[C@H]2O)c(=O)[nH]1 [GMP]	2630 nM																		
NC(=O)[C@@H]1CC[C@@H]2CN1C(=O)N2OS(=O)(=O)O [avibactam]	1.45 nM																		
LAQ-1 (Lelliottia amnigena)		57.05 µM	467 s⁻¹	8.18e+06 M⁻¹ s⁻¹	436.1 µM	9140 s⁻¹	2.1e+07 M⁻¹ s⁻¹	645 µM	25700 s⁻¹	3.99e+07 M⁻¹ s⁻¹	65.4 µM	1110 s⁻¹	1.69e+07 M⁻¹ s⁻¹	87.56 µM	9430 s⁻¹	1.08e+08 M⁻¹ s⁻¹	140 µM	642 s⁻¹	4.58e+06 M⁻¹ s⁻¹

Source: PMC9727190, “Characterization and identification of a novel chromosomal class C β-lactamase, LAQ-1, and comparative genomic analysis of a multidrug resistance plasmid in Lelliottia amnigena P13” (Frontiers in Microbiology, 2022)
